Results taken from the RNAGym collection of RNA variant scans (doi:10.7554/elife.80360).

B1: HDV Ribozyme (parent)
chain: GGCCGGCAUGGUCCCAGCCUCCUCGCUGGCGCCGGCUGGGCAACAUUCCGAGGGGACCGUCCCCUCGGUAAUGGCGAAUGGGACCCA

Variants of: B1
Test: self-cleavage, relative activity (ratio to wild type); higher = more cleavage; co-transcriptional

Variant | self-cleavage
C22A G31A | 0.128
C22A G31C | 0
C22A G31U | 0.0594
C22A A45C | 0.115
C22A A45U | 0.233
C22A G54U | 0.317
C22A G54C | 0.281
C21G C22A | 0.0396
C21G C22G | 0
C21G C22U | 0.0519
C21G U72A | 0.0723
C21U C75G | 0.151
C21U C75A | 0.0739
C21U C75U | 0.0248
C21A U60G | 0.138
C21U G76C | 0.347
C22A U60C | 0.424
C21G G38A | 0.0339
C21G G38U | 0.0702
C22G A78G | 0.141
C22G A78C | 0.131
C21U A87C | 0.206
C21U A87G | 0.165
C21U G40U | 0.0764

Variant | self-cleavage
C21U G40A | 0.538
C21U G39A | 0.993
C21U G39U | 0.604
C21U A83U | 0.162
C21U A83G | 0.124
C22A C84A | 0.0707
C22A C84U | 0.256
C22A C84G | 0.17
C21A U69C | 0.0426
C21G C61A | 0
C21G C61G | 0.0386
C21U | 0.251
C21G | 0.0702
C21G G25U | 0
C21G G25C | 0.0489
C22A G59A | 0.359
C22A G59U | 0.377
C22A C32U | 0.19
C22A C58U | 0.332
C22A C58G | 0.38
C22A C58A | 0.203
C21U C30G | 0.107
C21U C30U | 0.0755
C21G G39U | 0.0378

Variant | self-cleavage
C21G G39A | 0.0563
C22A G25A | 0.0369
C22A G25U | 0.0755
C21G G54A | 0.0496
C21G G54U | 0.0875
C21G A71C | 0.0449
C21G A71G | 0.0594
C21G U60A | 0.253
C21A U23C | 0.0755
C21A U23G | 0.125
C21G A83U | 0.0875
C22A C64U | 0.32
C22A C64A | 0.107
C22A C64G | 0.302
C21G A45C | 0.18
C21G A45U | 0.0405
C22G C24U | 0.104
C21G G74C | 0.104
C22A G34A | 0.0573
C22A G34C | 0.0773
C21U U79G | 0.0426
C21U U79C | 0.0573
C21U U47C | 0.271
C22A A56U | 0.323

Variant | self-cleavage
C22A A78C | 0.0692
C21G U46G | 0.0978
C21U G35A | 0.108
C21U G35U | 0.0804
C21U G35C | 0.233
C22A | 0.306
C22G | 0.0832
C21U C49A | 0.291
C22A A51U | 0.332
C21U U69C | 0.138
C21G A78C | 0.0462
C21G A78G | 0.135
C21U C84A | 0.0755
C21U C84U | 0.0923
C21U C84G | 0.122
C21G C85G | 0.219
C22A G50C | 0.354
C22A G50U | 0.293
C21G U37G | 0.166
C22A G80U | 0.0408
C22A G80C | 0.229
C21U C48U | 0.247
C21U C48G | 0.181
C21U C48A | 0.302

Variant | self-cleavage
C21G C86A | 0.0665
C21G C86G | 0.0369
C21G U65C | 0.113
C21U A78G | 0.155
C22A A70G | 0.203
C22A A70C | 0.17
C21G G59U | 0.0941
C21G G59A | 0.0594
C21G A77C | 0.0536
C21G A77G | 0.0386
C21U G67C | 0.205
C21G C84A | 0.138
C21U G25U | 0.0811
C21G A56G | 0.0791
C21G A56U | 0.116
C21U C58A | 0.136
C21U C58U | 0.203
C22A A77U | 0.101
C22A A77C | 0.0378
C21U G73C | 0.119
C21U G73U | 0.145
C21U G80C | 0.151
C21G G28C | 0.0755
C21G G28A | 0.0744

Variant | self-cleavage
C21G C32A | 0.0415
C21G C32G | 0.19
C21A U65G | 0.0665
C21A U65C | 0.0583
C21G U47G | 0.185
C21G U47C | 0
C21U G54U | 0.232
C21U G54A | 0.159
C21G G35C | 0.178
C22A G52U | 0.32
C22A G52A | 0.292
C21U C85A | 0.366
C22A C62A | 0.339
C22A C62U | 0.387
C21U C66U | 0.299
C21U C66A | 0.153
C21G C30U | 0.0308
C22A G67A | 0.185
C22A U79C | 0.18
C22A U79A | 0.131
C21U G55U | 0.17
C21G C49A | 0
C21G C49G | 0
C21G C49U | 0

Variant | self-cleavage
C22A C66U | 0.302
C22A C66A | 0.258
C21G C26G | 0.0723
C21G G50C | 0.116
C21G G50U | 0.0594
C21G G50A | 0
C22A G40C | 0.0282
C22A C26A | 0.262
C22A C26G | 0.119
C21U C32G | 0
C21U C32A | 0.0674
C21G A51U | 0.0354
C21G A51G | 0.131
C21U G53A | 0.116
C21U G53C | 0.188
C22A C86A | 0.448
C22A C86G | 0.208
C22A G35A | 0.0386
C22A G35U | 0.0791
C22A G35C | 0
C22A C41A | 0.475
C21U G74A | 0.149
C21U G74U | 0.0875
C21U G74C | 0.158

Variant | self-cleavage
C21U C41G | 0.432
C22G A87U | 0.141
C22G A87C | 0.0866
C21U G38U | 0.135
C21U G38A | 0.177
C21U G38C | 0.0923
C21U C64A | 0.185
C22A A87U | 0.24
C21G C75G | 0.0426
C21G G68A | 0.0707
C21G G68C | 0.0554
C21A U37C | 0.196
C21A U37A | 0
C22G A51G | 0.104
C22G A51C | 0.116
C21G G31A | 0.18
C22A U65G | 0.302
C21G C48A | 0
C21G C48G | 0.115
C21G C24U | 0
C21G C24A | 0.0437
C22G A71G | 0.0573
C22G A71C | 0.151
C22G A42C | 0.185

Variant | self-cleavage
C22G A42G | 0
C21U U65A | 0.293
C21U C62A | 0.214
C22A U37A | 0.0554
C22A C44G | 0.0489
C22A C44A | 0.151
C21G U27C | 0.217
C22G A43U | 0.115
C22G A43C | 0.0811
C22G A43G | 0
C21A U46C | 0.0536
C21G G52U | 0.117
C21G G52C | 0.111
C21G G29A | 0
C21G G29C | 0.0707
C21U C22G | 0.0264
C21U C22A | 0.0482
C21U G82U | 0.115
C21U G82C | 0.181
C21U G82A | 0.0906
C21A G82C | 0.104
C21A G82U | 0.0297
C22A G38C | 0.0346
C21A U47A | 0.0462

Variant | self-cleavage
C21U C61U | 0.319
C21U C61G | 0.277
C22G A56C | 0
C22G A56U | 0.133
C21G G76U | 0.0583
C21U U27A | 0.0536
C21U U27C | 0.0536
C21G G53A | 0.0511
C21G G53U | 0.0248
C21G C41A | 0.0573
C21U C44G | 0.424
C21U C44U | 0.62
C22A C61G | 0.323
C22A C61A | 0.415
C22A U27G | 0.151
C21A U79A | 0.125
C21G G40A | 0.0346
C21G G40C | 0.0898
C21U G50U | 0.141
C21U G50A | 0.253
C21U G50C | 0.115
C22A G55A | 0.284
C21U A56C | 0.289
C22A U47C | 0

Variant | self-cleavage
C22A U47A | 0.208
C22A G73U | 0.0573
C21U C86U | 0.282
C22A G76U | 0.554
C22A G76C | 0.447
C22A G76A | 0.212
C21G U69C | 0.104
C21G G67C | 0.0978
C21U C63A | 0.234
C21U C63U | 0.341
C21G C66G | 0
C21G C66A | 0.0739
C22A C30G | 0.154
C22A G28U | 0.106
C22A G28A | 0.148
C22A G28C | 0
C21U C24U | 0.0287
C21G U23C | 0.0615
C21G U23G | 0.0755
C21G U23A | 0.0536
C21U U37G | 0.0875
C21G A42G | 0.0573
C21G A42U | 0.0437
C21G G81U | 0.18

Variant | self-cleavage
C21G G81A | 0.0604
C21G G81C | 0.0504
C21G C44G | 0.141
C22A A83G | 0.14
C22A A83U | 0.0678
C22A G81U | 0.0536
C21G U79A | 0.0875
C21G U79C | 0.0244
C22A C48A | 0.201
C22A C48U | 0.433
C22A G82U | 0.111
C22A G82A | 0.0767
C22A G82C | 0
C22A C57G | 0.543
C22A C57U | 0.343
C21U G59U | 0.288
C21U G59C | 0.292
C21U G31A | 0.142
C21U G31C | 0.0723
C22G C30A | 0.0652
C22G C30G | 0.0437
C22G A45C | 0.0489
C22G A45G | 0
C21U C57A | 0.233

Variant | self-cleavage
C21U C57G | 0.196
C21G C57U | 0.138
C21G C57A | 0.166
C22G C26A | 0.156
C22A C49G | 0.143
C21U U60C | 0.219
C21U U60A | 0.237
C21U A70C | 0.332
C21U A70G | 0.271
C21U A70U | 0.228
C22A C33G | 0.213
C21U C36A | 0.0923
C22G A77G | 0.0504
C22G A77U | 0.162
C22A A43C | 0.111
C22G A70G | 0.185
C22G A70U | 0.173
C22G A83U | 0.0462
C21U C26U | 0.646
C21U U72A | 0.141
C21U U72G | 0.19
C22A U46C | 0.0692
C22A U46A | 0.104
C22A C85A | 0.378

Variant | self-cleavage
C22A C85G | 0.219
C22A U69A | 0.284
C21U A77C | 0.125
C21G C58U | 0.0314
C21G C58A | 0.0396
C21G C58G | 0
C21U G28U | 0
C21U G28A | 0.0791
C21G C64G | 0
C21U A71C | 0.293
C21U A43G | 0.0898
C21U A43U | 0.13
C22A G29A | 0.0297
C22A G29C | 0.0449
C21G G34A | 0.0386
C21U G34A | 0.0225
C22A G68C | 0.22
C22A G68U | 0.212
C22A G74C | 0.146
C22A G74U | 0.0213
C21U G52A | 0.24
C21A U72C | 0.101
